The labels stand for the following.
B1: FBXO3 (parent)
chain: AGGFQQRQGLKYCLPLTFCIHTGL
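Note: lentivirally expressed fusions sorted by FACS into six bins by GFP to DsRed ratio, PSI derived from sequencing read proportions per bin multiplied by bin number.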

In the data set the parent is B1. The data set can be described thus: protein stability index of a GFP-peptide fusion (GPS, HEK-293T) (PSI 1-6); higher = more stable. The conditions noted are these: c terminus: a fixed tail appended.
Regarding AGGFQQRQGLKYTLPLTFCIHTGL, the protein stability index worked out at 3.22. Consider AGGFQQRQGLKYHLPLTFCIHTGL, for which the protein stability index came to 2.57. On to AGGFQQRQGLKYNLPLTFCIHTGL, for which the protein stability index amounted to 2.93. With AGGFQQRQGLKYYLPLTFCIHTGL, the protein stability index is 2.22.

On to AGGFQQRQGLKYGLPLTFCIHTGL, for which the protein stability index stood at 2.48. Then AGGFQQRQGLKYLLPLTFCIHTGL, with 1.69; and AGGFQQRQGLKYDLPLTFCIHTGL, with 2.67. Then AGGFQQRQGLKYALPLTFCIHTGL, with 2.85; and AGGFQQRQGLKYMLPLTFCIHTGL, with 2.51. Then AGGFQQRQGLKYWLPLTFCIHTGL, with 3.43; and AGGFQQRQGLKYVLPLTFCIHTGL, with 3.35; and AGGFQQRQGLKYFLPLTFCIHTGL, with 2.94.

For the variant AGGFQQRQGLKYILPLTFCIHTGL, the protein stability index is 2.94. As for AGGFQQRQGLKYELPLTFCIHTGL, the figure is 3.1; as for AGGFQQRQGLKYQLPLTFCIHTGL, 3; as for AGGFQQRQGLKYPLPLTFCIHTGL, 3.01. For the variant AGGFQQRQILKYCLPLTFCIHTGL, the protein stability index was determined as 2.28. Then AGGFQQRQVLKYCLPLTFCIHTGL, with 2.39; and AGGFQQRQLLKYCLPLTFCIHTGL, with 3.97. As for AGGFQQRQYLKYCLPLTFCIHTGL, the figure is 3.4; as for AGGFQQRQDLKYCLPLTFCIHTGL, 2.68; as for AGGFQQRQFLKYCLPLTFCIHTGL, 2.58. As to AGGFQQRQELKYCLPLTFCIHTGL, the protein stability index was determined as 1.87. As for AGGFQQRQRLKYCLPLTFCIHTGL, the figure is 1.48; as for AGGFQQRQSLKYCLPLTFCIHTGL, 3.54; as for AGGFQQRQMLKYCLPLTFCIHTGL, 3.48. Then AGGFQQRQKLKYCLPLTFCIHTGL, with 2.74. Then AGGFQQRQHLKYCLPLTFCIHTGL, with 2.94; and AGGFQQRQNLKYCLPLTFCIHTGL, with 2.28. For AGGFQQRQQLKYCLPLTFCIHTGL, the protein stability index is 2.5. As for AGGFQQRQTLKYCLPLTFCIHTGL, the figure is 3.85; as for AGGFQQRQCLKYCLPLTFCIHTGL, 2.68; as for AGGFQQRQGLRYCLPLTFCIHTGL, 2.03. Then AGGFQQRQGLAYCLPLTFCIHTGL, with 2.43; and AGGFQQRQGLSYCLPLTFCIHTGL, with 2.74; and AGGFQQRQGLWYCLPLTFCIHTGL, with 4.04. For the variant AGGFQQRQGLIYCLPLTFCIHTGL, the protein stability index amounted to 3.42.

Turning to AGGFQQRQGLCYCLPLTFCIHTGL, the protein stability index worked out at 2.12. As to AGGFQQRQGLNYCLPLTFCIHTGL, the protein stability index worked out at 1.99. As for AGGFQQRQGLHYCLPLTFCIHTGL, the figure is 2.35; as for AGGFQQRQGLGYCLPLTFCIHTGL, 3.61. On to AGGFQQRQGLDYCLPLTFCIHTGL, for which the protein stability index came out at 3.52. Then AGGFQQRQGLQYCLPLTFCIHTGL, with 2.75. Then AGGFQQRQGLMYCLPLTFCIHTGL, with 1.96; and AGGFQQRQGLLYCLPLTFCIHTGL, with 2.21; and AGGFQQRQGLYYCLPLTFCIHTGL, with 2.43. For the variant AGGFQQRQGLEYCLPLTFCIHTGL, the protein stability index was found to be 2.8. As for AGGFQQRQGLFYCLPLTFCIHTGL, the figure is 3.02; as for AGGFQQRQGLVYCLPLTFCIHTGL, 3.35. As for AGGFQQRQGLTYCLPLTFCIHTGL, the figure is 2.45; as for AGGFQQYQGLKYCLPLTFCIHTGL, 2.27. As for AGGFQQIQGLKYCLPLTFCIHTGL, the figure is 2.12; as for AGGFQQPQGLKYCLPLTFCIHTGL, 3.24.

In the case of AGGFQQHQGLKYCLPLTFCIHTGL, the protein stability index was 2.74. Then AGGFQQEQGLKYCLPLTFCIHTGL, with 2.83; and AGGFQQFQGLKYCLPLTFCIHTGL, with 3.23; and AGGFQQLQGLKYCLPLTFCIHTGL, with 3.44. As for AGGFQQCQGLKYCLPLTFCIHTGL, the figure is 2.54; as for AGGFQQNQGLKYCLPLTFCIHTGL, 2.95; as for AGGFQQGQGLKYCLPLTFCIHTGL, 3.16. Then AGGFQQVQGLKYCLPLTFCIHTGL, with 3.75. AGGFQQTQGLKYCLPLTFCIHTGL: the protein stability index turned out to be 2.6. Then AGGFQQSQGLKYCLPLTFCIHTGL, with 2.33. Then AGGFQQDQGLKYCLPLTFCIHTGL, with 2.64; and AGGFQRRQGLKYCLPLTFCIHTGL, with 2.77. For AGGFQNRQGLKYCLPLTFCIHTGL, the protein stability index turned out to be 3.27. On to AGGFQLRQGLKYCLPLTFCIHTGL, for which the protein stability index was determined as 3.23. Then AGGFQYRQGLKYCLPLTFCIHTGL, with 2.09; and AGGFQIRQGLKYCLPLTFCIHTGL, with 3.58; and AGGFQWRQGLKYCLPLTFCIHTGL, with 3.85. Consider AGGFQTRQGLKYCLPLTFCIHTGL, for which the protein stability index came out at 2.67. With AGGFQSRQGLKYCLPLTFCIHTGL, the protein stability index is 2.81. Then AGGFQVRQGLKYCLPLTFCIHTGL, with 2.68; and AGGFQKRQGLKYCLPLTFCIHTGL, with 3.51; and AGGFQMRQGLKYCLPLTFCIHTGL, with 2.1. As for AGGFQHRQGLKYCLPLTFCIHTGL, the figure is 3.73; as for AGGFQPRQGLKYCLPLTFCIHTGL, 3.26; as for AGGFQQRQGLKYCPPLTFCIHTGL, 1.56.

As for AGGFQQRQGLKYCCPLTFCIHTGL, the protein stability index was 3.66. As for AGGFQQRQGLKYCSPLTFCIHTGL, the figure is 2.67. With AGGFQQRQGLKYCRPLTFCIHTGL, the protein stability index was 2.88. Then AGGFQQRQGLKYCDPLTFCIHTGL, with 1.78; and AGGFQQRQGLKYCTPLTFCIHTGL, with 1.84. AGGFQQRQGLKYCVPLTFCIHTGL: the protein stability index stood at 4.27. Then AGGFQQRQGLKYCMPLTFCIHTGL, with 2.42; and AGGFQQRQGLKYCIPLTFCIHTGL, with 4.28. As for AGGFQQRQGLKYCKPLTFCIHTGL, the figure is 2.73; as for AGGFQQRQGLKYCGPLTFCIHTGL, 3.59. As for AGGFQQRQGLKYCEPLTFCIHTGL, the figure is 1.97; as for AGGFQQRQGLKYCQPLTFCIHTGL, 2.57; as for AGGFQQRQGLKYCHPLTFCIHTGL, 1.75. Regarding AGGFQQRQGLKYCYPLTFCIHTGL, the protein stability index amounted to 2.16.

Take AGGFQQRQGLKYCNPLTFCIHTGL: the protein stability index amounted to 2.34. As for AGGFQQRQGLKYCAPLTFCIHTGL, the figure is 2.7.
